From patent US20190048074A1 (Regeneron, published 2019)
Positions count from the first letter of the chain named. Numbers in names are those of the source.

B1: H4H9093P (antibody, V domains shown)
VH: EVQLVESGGGLVKPGGSLRLSCAASGITFSNAWMSWVRQAPGKGLEWVGRFKGKADGGTVDYAAPVKGRFTISRDDSKNTLYLQMNSLKNEDTAVYYCTTGRITMVRGVLGYWGQGTLVTVSS
VL: not shown
B2: H4H9101P (antibody, V domains shown)
VH: QVQLVQSGAEVKKPGASVEVSCKASGYTFTDYYIHWIRQAPGQGLEWMGWINPDSGRTNYAQKFQVRVTMTRDTSITTAYMELNRLKSDDTAVYYCARGPLRGYSGYDFFDYWGQGTLVTVSS
VL: DIQLTQSPSFLSASVGDRVTITCWASQGISSYLAWYQQKPGKAPKLLIYAASTLQSGVPSRFSGSGSGTEFTLTISSLQPEDFASYFCQQLNSNPRTFGQGTKVEIK
notes: Fully human, human IgG4 Fc
B3: H4H9103P (antibody, V domains shown)
VH: EVQLVESGGGLVQPGRSLRLSCAASGFTFDDYAMHWVRQVPGKGLEWVSGITWNSGDIGYADSVKGRFTISRDNAKNSLYLQMNSLRAEDTALYYCTKDKDSSGYYGIDVWGQGTTVTVSS
VL: DIQMTQSPSSVSASVGDRVTITCRASQGIRTWLAWYQQKPGKAPKLLIYAASSLQSGVPSRFSGSESGTDFTLTISSLQPEDFATYYCQQANSFPFTFGPGTKVDIK
notes: Fully human, human IgG4 Fc
B4: H4H9104P (antibody, V domains shown)
VH: QVQLVESGGDLVKPGGSLRLSCAASGFTFSDYYMNWIRQAPGKGLEWVSYISSSGSTIHYADSVKGRFTISRDNAKNLVYLRMNSLRAEDTAVYFCAREREVHDYSDPYFFFYGMDVWGQGTTVTVSS
VL: DIQMTQSPSSVSASVGDRVTITCRASQDVSSWLAWYQHKPGKAPKLLIFAASSLQSGVPSRFSGSGSGTDFTLTISSLQSEDFATYYCQQANSFPLTFGGGTKVEIK
notes: Fully human, human IgG4 Fc
B5: H4H9112P (antibody, V domains shown)
VH: B2 VH
VL: DIQMTQSPSSLSAFVGDRVTITCRASQSISSYLNWYQQKPGKAPKLLIYTASTLQRGVPSRFRGSGSGTDFTLTISSLQPEDFATYYCHQTYSIPITFGQGTRLEIK
notes: Fully human, human IgG4 Fc
B6: H4H9113P (antibody, V domains shown)
VH: B2 VH
VL: DIQMTQSPSSLSASVGDRVTITCRASQGIRNDLGWYQQKPGKAPNRLIYAASSLQSGVPSRFSGSGSGTEFTLTISSLHPEDFATYSCLQHNSFPLTFGGGTKVEIK
notes: Fully human, human IgG4 Fc
B7: H2aM9227N (antibody, V domains shown)
VH: EVQLVESGGGLVQPGGSLRLSCAASGFTFSSFWMSWVRQVPGKGLEWVANIKQDGSEKYYVDSVKGRFTISRDNAKNSLYLQMNSLRAEDTAVYYCARDRFGYSFYDKGVRYYYGMDVWGQGTTVTVSS
VL: B6 VL with A13V, N45K, A51T, S77G, H79Q, S87Y, F94Y, L96R, G100Q
notes: Human variable domains, mouse IgG2a Fc
B8: H2aM9228N (antibody, V domains shown)
VH: B7 VH with S31N, F32Y, Q39L, V40A, K58R, D62G, D73G, N74D, F105A, Y106F
VL: B6 VL with N45K, H79Q, S87Y, F94Y, L96R, G100Q
notes: as for B7
B9: H2aM9230N (antibody, V domains shown)
VH: B7 VH with E46Q, F105V
VL: B6 VL with A13V, N45K, S77G, H79Q, P80S, S87Y, N92K, F94Y, L96R, G100Q
notes: as for B7
B10: H1M9207N (antibody, V domains shown)
VH: EVQLVESGGGLAQPGGSLRLSCAASGFTFSNYWMSWVRQAPGKGLEWVANIKQDGSEKYYLESVKGRFTISRDNAKNLLYLQMNSLRAEDTAVFYCARPGLLRFLEPGRRYYSGMNVWGQGTTVTVSS
VL: B2 VL with S30R, S85T, F87Y, L91F, N94Y, R96W
notes: Human variable domains, mouse IgG1 Fc (H1M prefix)
B11: H2aM9232N (antibody, V domains shown)
VH: QVKLVESGGGVVQPGRSLRLSCAASGFTFSNYVIHWVRQAPGKGLEWVAVIWYDGSNKYYADSVKGRFTISRDNSKNTLYLQMNSLRAEDTAVYYCARDRVVRGVDYYYYYGLDVWGQGTSVTVSS
VL: EIVMTQSPATLSVSPGERATLSCRASQSVRSNLAWYQQKPGQAPRLLIYGASSRATGIPARFSGTGSGTEFTLTISSLQSDDFAVYYCQQYNKWPRTFGQGTKVEIK
notes: as for B7
B12: H2aM9222N (antibody, V domains shown)
VH: B7 VH with S31N, F32Y, V40A, K58R, D62G, D73G, N74D, K76E, F105A
VL: B6 VL with N45K, H79Q, S87Y, F94Y, L96R, G100Q
notes: as for B7
B13: H2aM9209N (antibody, V domains shown)
VH: EVQLLESGGGLVQPGGSLRLSCAASGFTFSNYAMNWVRQAPGRGLEWVSAIHYDGSNSYYADSVKGRFTISRDNSKNTLYLQMNSLRAEDTAIYYCAILSRVYWGQGTLVTVSS
VL: DIQMTQSPSSLSASVGDRVTITCRASQGINNYLAWFQQKPGKAPKSLIYATSSLQSGVPSKFSGSGSGTDFTLTISSLQPEDFATYYCQQYNSYPLTFGGGTKVEIK
B14: H4H9209N (antibody, V domains shown)
VH: B13 VH
VL: B13 VL

biological target: T1, full-length human APLNR (human, UniProt P35414 1-380); assay: cell-based or functional assay
T1 sequence: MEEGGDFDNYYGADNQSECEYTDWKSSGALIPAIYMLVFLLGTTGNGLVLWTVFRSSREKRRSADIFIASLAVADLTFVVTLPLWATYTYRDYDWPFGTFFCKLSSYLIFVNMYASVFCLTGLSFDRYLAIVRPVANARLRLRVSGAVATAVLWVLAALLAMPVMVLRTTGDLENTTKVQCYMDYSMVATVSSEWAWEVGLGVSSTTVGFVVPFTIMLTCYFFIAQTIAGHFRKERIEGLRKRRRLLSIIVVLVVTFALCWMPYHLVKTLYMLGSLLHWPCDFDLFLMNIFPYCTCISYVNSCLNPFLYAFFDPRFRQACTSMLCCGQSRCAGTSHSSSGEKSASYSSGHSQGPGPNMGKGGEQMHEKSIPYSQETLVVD

| Binder | % Inhibition at 100 nM mAb, in the presence of 100 ρM Apelin (at 7.5 µM Forskolin) [%] |
| --- | --- |
| B1 | 3 |

biological target: T1, full-length human APLNR; assay: FACS, 10 µg/mL antibody, HEK293/CRE-luc/hAPLNR cells

| Binder | Binding Ratio of Geom. Mean to Unstained Cells [fold] |
| --- | --- |
| B2 | 3 |
| B3 | 3 |
| B4 | 2 |
| B5 | 2 |
| B6 | 2 |

biological target: T1, full-length human APLNR; assay: as above; remark: another data set of the same source

| Binder | Binding Ratio of Geom. Mean to Unstained Cells [fold] |
| --- | --- |
| B7 | 4100 |
| B8 | 1490 |
| B9 | 2940 |
| B10 | 2180 |
| B11 | 2860 |

biological target: T1, full-length human APLNR; assay: cell-based or functional assay; remark: another data set of the same source

| Binder | % Inhibition at 100 nM antibody, in the presence of 100 ρM Apelin (at 5 µM Forskolin) [%] | IC50 [M], in the presence of 100 ρM Apelin (at 5 µM Forskolin) [M] |
| --- | --- | --- |
| B12 | 11 | – |
| B7 | 33 | 4.3e-09 |
| B8 | 26 | > 1e-07 |
| B9 | 49 | 2.4e-09 |
| B10 | 83 | 3e-09 |
| B13 | 7 | – |
| B11 | 98 | 4.2e-09 |

biological target: T1, full-length human APLNR; assay: cell-based or functional assay; remark: another data set of the same source

| Binder | % Activation at 500 nM mAb (at 7.5 uM Forskolin) [%] |
| --- | --- |
| B12 | 21 |
| B7 | 45 |
| B8 | 49 |
| B9 | 52 |

biological target: T2, full length cynomolgus APLNR (cynomolgus monkey (Macaca fascicularis), UniProt O97666 1-380 (rhesus entry)); assay: FACS, 10 µg/mL antibody, HEK293/CRE-luc/MfAPLNR cells
T2 construct: Stably expressed on HEK293/CRE-luc/MfAPLNR cells; also called MfAPLNR; mfAPLNR
T2 sequence: T1 sequence with F101S, L167F, E194D, I290V

| Binder | Binding Ratio of Geom. Mean to Unstained Cells [fold] |
| --- | --- |
| B2 | 2 |
| B3 | 2 |
| B4 | 1 |
| B5 | 2 |
| B6 | 1 |

biological target: T1, full-length human APLNR; assay: cell-based or functional assay; remark: another data set of the same source

| Binder | Activating EC50 (M), pERK/total ERK assay, CHO/hAPLNR cells [M] | Inhibiting IC50 (M), pERK/total ERK assay, CHO/hAPLNR cells [M] |
| --- | --- | --- |
| B12 | 4.79e-08 | – |
| B8 | 6.41e-08 | – |
| B11 | – | 2.09e-07 |

biological target: T1, full-length human APLNR; assay: cell-based or functional assay; remark: another data set of the same source

| Binder | % Inhibition at 100 nM mAb, in the presence of 100 ρM Apelin (at 10 µM Forskolin) [%] | IC50 [M], in the presence of 100 ρM Apelin (at 10 µM Forskolin) [M] |
| --- | --- | --- |
| B14 | 16 | 5.9e-09 |

biological target: T3, human Apelin receptor (hAPLNR) in PathHunter eXpress AGTRL1 CHO-K1 β-Arrestin cells (human, UniProt P35414 1-380); assay: cell-based or functional assay
T3 sequence: T1 sequence

| Binder | % Activation at 500 nM antibody or Apelin-antibody fusion [%] |
| --- | --- |
| B1 | 2 |

biological target: T2, full length cynomolgus APLNR; assay: FACS, 10 µg/mL antibody, HEK293/CRE-luc/MfAPLNR cells; remark: another data set of the same source

| Binder | Binding Ratio of Geom. Mean to Unstained Cells [fold] |
| --- | --- |
| B7 | 1440 |
| B8 | 108 |
| B9 | 658 |
| B10 | 1310 |
| B11 | 678 |
